Data as given in article PMC10440358 (Biochemistry and Biophysics Reports, 2023).

B1: NΔ150-hTPH2 A328E (domain or fragment)
chain: not shown
B2: NΔ150-hTPH2, wild type (human tryptophan hydroxylase 2 lacking the N-terminal 150 amino acid regulatory domain) (domain or fragment)
chain: not shown
B3: Human tryptophan hydroxylase 2, full-length wild type (enzyme, UniProt Q8IWU9 1-490, looked up)
chain: MQPAMMMFSSKYWARRGFSLDSAVPEEHQLLGSSTLNKPNSGKNDDKGNKGSSKREAATESGKTAVVFSLKNEVGGLVKALRLFQEKRVNMVHIESRKSRRRSSEVEIFVDCECGKTEFNELIQLLKFQTTIVTLNPPENIWTEEEELEDVPWFPRKISELDKCSHRVLMYGSELDADHPGFKDNVYRQRRKYFVDVAMGYKYGQPIPRVEYTEEETKTWGVVFRELSKLYPTHACREYLKNFPLLTKYCGYREDNVPQLEDVSMFLKERSGFTVRPVAGYLSPRDFLAGLAYRVFHCTQYIRHGSDPLYTPEPDTCHELLGHVPLLADPKFAQFSQEIGLASLGASDEDVQKLATCYFFTIEFGLCKQEGQLRAYGAGLLSSIGELKHALSDKACVKAFDPKTTCLQECLITTFQEAYFVSESFEEAKEKMRDFAKSITRPFSVYFNPYTQSIEILKDTRSIENVVQDLRSDLNTVCDALNKMNQYLGI
B4: Human tryptophan hydroxylase 2, full-length A328V variant (rs2887147) (enzyme, UniProt Q8IWU9 1-490, looked up)
chain: MQPAMMMFSSKYWARRGFSLDSAVPEEHQLLGSSTLNKPNSGKNDDKGNKGSSKREAATESGKTAVVFSLKNEVGGLVKALRLFQEKRVNMVHIESRKSRRRSSEVEIFVDCECGKTEFNELIQLLKFQTTIVTLNPPENIWTEEEELEDVPWFPRKISELDKCSHRVLMYGSELDADHPGFKDNVYRQRRKYFVDVAMGYKYGQPIPRVEYTEEETKTWGVVFRELSKLYPTHACREYLKNFPLLTKYCGYREDNVPQLEDVSMFLKERSGFTVRPVAGYLSPRDFLAGLAYRVFHCTQYIRHGSDPLYTPEPDTCHELLGHVPLLVDPKFAQFSQEIGLASLGASDEDVQKLATCYFFTIEFGLCKQEGQLRAYGAGLLSSIGELKHALSDKACVKAFDPKTTCLQECLITTFQEAYFVSESFEEAKEKMRDFAKSITRPFSVYFNPYTQSIEILKDTRSIENVVQDLRSDLNTVCDALNKMNQYLGI
B5: NΔ150-hTPH2 A328V (domain or fragment)
chain: not shown

Target: the molecule itself
Experiment: SEC

Stoichiometry N, 4:
B1, B2, B3, B4, B5
